{"source": "paper PMC6639327", "about": "“PLPP/CIN-mediated NEDD4-2 S448 dephosphorylation regulates neuronal excitability via GluA1 ubiquitination” (Cell Death & Disease, 2019)", "key": {"[1]": {"biological_target": "Neuronal precursor cell expressed developmentally downregulated 4-2 (NEDD4-2) (mouse (endogenous in hippocampus)) (UniProt Q8CFI0)", "test": "co-IP; mouse hippocampal tissue lysed in RIPA buffer with protease and phosphatase inhibitors; equal protein incubated with NEDD4-2, ubiquitin or GluA1 antibody and protein G sepharose at 4 °C overnight; western blot; WT, PLPP/CIN^-/- and PLPP/CIN^Tg mice, saline or KA (25 mg/kg, 2 h), control or NEDD4-2 siRNA"}, "[2]": {"biological_target": "T1, Neuronal precursor cell expressed developmentally downregulated 4-2 (NEDD4-2) (mouse (endogenous in hippocampus), UniProt Q8CFI0 1-1004)", "T1 construct": "NEDD4-2 E3 ubiquitin ligase, endogenous in mouse hippocampus; S222 and S328 in murine NEDD4-2; source: endogenous, mouse hippocampal tissue lysate (RIPA buffer)", "T1 sequence (looked up)": "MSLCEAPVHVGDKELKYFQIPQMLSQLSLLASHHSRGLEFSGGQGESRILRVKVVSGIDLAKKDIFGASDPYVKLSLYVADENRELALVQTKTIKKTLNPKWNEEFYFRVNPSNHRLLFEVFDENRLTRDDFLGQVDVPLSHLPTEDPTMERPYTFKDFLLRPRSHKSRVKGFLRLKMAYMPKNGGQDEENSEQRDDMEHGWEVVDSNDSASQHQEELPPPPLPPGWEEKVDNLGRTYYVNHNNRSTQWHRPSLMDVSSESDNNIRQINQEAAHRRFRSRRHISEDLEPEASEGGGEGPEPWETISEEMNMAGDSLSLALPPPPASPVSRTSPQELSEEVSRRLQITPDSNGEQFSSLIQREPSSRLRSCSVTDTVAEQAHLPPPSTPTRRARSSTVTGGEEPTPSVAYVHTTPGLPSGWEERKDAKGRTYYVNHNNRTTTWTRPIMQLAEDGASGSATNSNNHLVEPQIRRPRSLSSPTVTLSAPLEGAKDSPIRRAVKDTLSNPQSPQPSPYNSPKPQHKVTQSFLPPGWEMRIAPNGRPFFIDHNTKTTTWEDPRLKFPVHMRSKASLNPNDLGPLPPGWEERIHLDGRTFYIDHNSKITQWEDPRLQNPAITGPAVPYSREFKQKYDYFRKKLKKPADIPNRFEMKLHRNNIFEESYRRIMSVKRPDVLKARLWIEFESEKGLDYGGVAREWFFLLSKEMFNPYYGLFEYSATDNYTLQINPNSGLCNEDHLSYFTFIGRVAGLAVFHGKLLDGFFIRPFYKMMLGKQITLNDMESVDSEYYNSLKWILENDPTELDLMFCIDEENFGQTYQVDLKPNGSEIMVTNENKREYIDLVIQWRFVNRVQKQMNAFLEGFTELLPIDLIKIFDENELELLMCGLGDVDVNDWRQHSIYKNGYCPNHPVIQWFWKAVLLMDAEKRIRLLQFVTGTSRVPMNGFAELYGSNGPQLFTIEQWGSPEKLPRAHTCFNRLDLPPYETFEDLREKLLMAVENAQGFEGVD", "test": "co-IP; mouse hippocampal tissue lysed in RIPA buffer with protease and phosphatase inhibitors; equal protein incubated with NEDD4-2, ubiquitin or GluA1 antibody and protein G sepharose at 4 °C overnight; western blot; WT, PLPP/CIN^-/- and PLPP/CIN^Tg mice, saline or KA (25 mg/kg, 2 h), control or NEDD4-2 siRNA", "conditions": "partners not purified"}, "[3]": {"biological_target": "T2, full-length recombinant human NEDD4-2, phosphorylated by SGK1 (human, UniProt Q96PU5 1-975, phosphorylated by incubation with 200 U/μl SGK1 and 100 μM ATP (S342 and S448 phosphorylation followed by western blot))", "T2 construct": "human NEDD4-2, full-length recombinant protein (Abcam); SGK1 and ATP were still in the sample when PLPP/CIN was added; source: bought: Abcam; phosphorylated in vitro with SGK1 (SignalChem) and ATP", "T2 sequence (looked up)": "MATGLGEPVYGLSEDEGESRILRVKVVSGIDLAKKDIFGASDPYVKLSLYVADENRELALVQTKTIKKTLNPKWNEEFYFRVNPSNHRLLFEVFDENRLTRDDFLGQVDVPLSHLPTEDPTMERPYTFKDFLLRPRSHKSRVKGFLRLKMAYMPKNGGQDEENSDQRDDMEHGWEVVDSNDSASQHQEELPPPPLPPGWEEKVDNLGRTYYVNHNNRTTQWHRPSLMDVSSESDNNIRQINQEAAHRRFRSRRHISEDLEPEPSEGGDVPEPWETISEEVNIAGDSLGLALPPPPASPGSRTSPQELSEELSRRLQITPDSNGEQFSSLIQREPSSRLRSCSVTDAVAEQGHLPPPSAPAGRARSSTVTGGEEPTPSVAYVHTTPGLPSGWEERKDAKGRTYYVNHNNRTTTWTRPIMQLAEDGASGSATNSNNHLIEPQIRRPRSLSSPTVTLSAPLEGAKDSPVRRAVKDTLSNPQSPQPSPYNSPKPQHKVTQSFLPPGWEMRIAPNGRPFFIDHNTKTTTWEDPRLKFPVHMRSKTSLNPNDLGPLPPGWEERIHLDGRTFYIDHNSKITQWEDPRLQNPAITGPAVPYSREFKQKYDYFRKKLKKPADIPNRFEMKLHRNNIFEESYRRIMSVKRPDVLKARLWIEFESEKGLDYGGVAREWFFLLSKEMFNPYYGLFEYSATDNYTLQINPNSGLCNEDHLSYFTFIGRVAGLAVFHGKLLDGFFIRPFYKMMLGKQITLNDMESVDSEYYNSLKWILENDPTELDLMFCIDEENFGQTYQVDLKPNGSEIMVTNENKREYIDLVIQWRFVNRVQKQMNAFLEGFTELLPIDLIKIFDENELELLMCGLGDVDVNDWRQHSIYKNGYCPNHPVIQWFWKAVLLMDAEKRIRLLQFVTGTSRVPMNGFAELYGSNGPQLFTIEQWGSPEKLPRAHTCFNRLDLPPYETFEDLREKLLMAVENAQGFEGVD", "test": "co-IP; in vitro with recombinant proteins: NEDD4-2 (10 ng/μl) phosphorylated with 200 U/μl SGK1 and 100 μM ATP in kinase assay buffer I at 30 °C for 1 h, then PLPP/CIN (10 ng/μl) added, 30 °C for 1 h; coprecipitation and western blot", "conditions": "both partners purified"}}, "data": [{"molecule": "PLPP/CIN in PLPP/CIN transgenic (PLPP/CIN^Tg) mice (from UniProt P60487 1-292)", "values": [{"measurement": "fold of the binding in WT mice", "setting": "[1]", "result": 1.4, "unit": "fold"}]}, {"molecule": "Pyridoxal-5'-phosphate phosphatase/chronophin (PLPP/CIN) (enzyme, mouse (endogenous in hippocampus), UniProt P60487 1-292, looked up, Pyridoxal-5'-phosphate phosphatase/chronophin, endogenous in the hippocampus of WT mice; source: endogenous, mouse hippocampal tissue lysate (RIPA buffer)) MARCERLRGAALRDVLGQAQGVLFDCDGVLWNGERIVPGAPELLQRLARAGKNTLFVSNNSRRARPELALRFARLGFAGLRAEQLFSSALCAARLLRQRLSGPPDASGAVFVLGGEGLRAELRAAGLRLAGDPGEDPRVRAVLVGYDEQFSFSRLTEACAHLRDPDCLLVATDRDPWHPLSDGSRTPGTGSLAAAVETASGRQALVVGKPSPYMFQCITEDFSVDPARTLMVGDRLETDILFGHRCGMTTVLTLTGVSSLEEAQAYLTAGQRDLVPHYYVESIADLMEGLED", "values": [{"measurement": "fold of control level (2 h after KA, WT mice)", "setting": "[2]", "result": "~1.4", "unit": "fold"}]}, {"molecule": "recombinant human PLPP/CIN protein (enzyme, UniProt Q96GD0 1-296, looked up, human pyridoxal-5'-phosphate phosphatase/chronophin, recombinant protein (Abcam); The sentence reads 'full-length recombinant human NEDD4-2 (Abcam, UK) and human PLPP/CIN proteins'; whether 'full-length' also covers PLPP/CIN is not clear; source: bought: Abcam) MARCERLRGAALRDVLGRAQGVLFDCDGVLWNGERAVPGAPELLERLARAGKAALFVSNNSRRARPELALRFARLGFGGLRAEQLFSSALCAARLLRQRLPGPPDAPGAVFVLGGEGLRAELRAAGLRLAGDPSAGDGAAPRVRAVLVGYDEHFSFAKLREACAHLRDPECLLVATDRDPWHPLSDGSRTPGTGSLAAAVETASGRQALVVGKPSPYMFECITENFSIDPARTLMVGDRLETDILFGHRCGMTTVLTLTGVSRLEEAQAYLAAGQHDLVPHYYVESIADLTEGLED", "values": [{"measurement": "binding result", "setting": "[3]", "result": "binds"}]}]}
